{"source": "patent US20130045267A1", "about": "“METHODS OF USING AGENTS THAT MODULATE CLAUDIN EXPRESSION” (priority 2010, published 2013)", "key": {"[1]": {"system": "claudin-1 transcripts", "assay": "qPCR of claudin-1 transcripts after siRNA transfection of PHK", "assay_type": "cell-based, human", "details": "siRNA 100 nM", "experimental": "QPCR was performed using the iScript™ cDNA Synthesis kit and iQ™ SYBER Green Supermix assay system (Bio-Rad Laboratories). All PCR amplifications were carried out in triplicate on an iQ5 Multicolor real-time PCR detection system (Bio-Rad). Primers were designed and synthesized by Integrated DNA Technologies (Table 1). Relative gene expression was calculated by using the 2^−ΔΔCt method. Livak and Schmittgen, “Analysis of Relative Gene Expression Data Using Real-Time Quantitative PCR and the 2(−Delta Delta C(T)) Method,” Methods 25:402-8 (2001), which is hereby incoporated by reference in its entirety. The normalized Ct value of each sample was calculated using GAPDH as an endogenous control gene.\nPHK were plated on glass coverslips at 2-3×10^5 cells/well in a 6-well plate or at 2-3×10^4 cells/filter in Transwell insert (Costar; PET membrane, 0.4 μm pore size, 6.5 mm insert) in Keratinocyte-SFM without antibiotics. The next day after plating, cells were transfected with claudin-1 specific or control (scrambled) siRNAs (Santa Cruz) using Lipofectamine™ 2000 transfection Reagent (Invitrogen). TEER and permeability experiments were conducted 48 hours after PHK were switched to differentiation media.\nsiRNA approach was used to selectively downregulate claudin-1 in primary human keratinocytes (PHK). […] There was no effect on mRNA expression of occludin, ZO-1, nectin-1, E-cadherin or filaggrin (n=5/group). Relative gene expressions were calculated by using the 2^−ΔΔCt method, in which Ct indicates cycle threshold, the fractional cycle number where the fluorescent signal reaches detection threshold. The normalized Ct value of each sample was calculated using GAPDH as endogenous control gene. The specific sequence information for the claudin-1 siRNA (h) is detailed below. (This siRNA is a pool of 3 separate strands.)"}, "[2]": {"system": "HSV-1 strain F", "assay": "HSV-1 fluorescent-focus assay in PHK", "assay_type": "cell-based, Herpes Simplex Virus (HSV)-1", "details": "siRNA 100 nM, MOI 0.1, 24 h, n=6", "experimental": "Infection studies were performed using the highly virulent HSV-1 strain F (provided by Dr. D.C. Johnson). Twenty-four to 48 h post-transfection with 100 nM claudin-1 or control siRNA, the cells were differentiated in DMEM with 10% heat-inactivated FBS for 24 h. Cells were washed twice with HBSS and infected with HSV-1 strain F at a multiplicity of infection (MOI) of 0.1 in DMEM containing 1% heat-inactivated FBS at 37° C., with rocking every 15 min. After 2 h, the viral inoculum was removed, and the cells were washed 2× with HBSS and incubated in DMEM containing 5% HI-FBS and 0.4% human-γ-globulin (Sigma; final concentration 0.5 mg/ml) for 24 hr to neutralize any extracellular virus.\nHSV-infected PHK were washed 2× with PBS and fixed in 4% formaldehyde/PBS for 20 min at room temperature. A polyclonal rabbit anti-HSV-1 (Dako) antibody diluted 1:500 in PBS/1% BSA was placed on the PHK for 1 h at 37° C. followed by Alexa Fluor 488 donkey-anti-rabbit IgG H+L (1:1000, Molecular Probes) and 4′,6-diamidino-2-phenyl-indole, dihydrochloride (DAPI) (1:10,000, Molecular Probes). Coverslips were mounted onto slides with SlowFade (Molecular Probes). […] Images were stored in Portable Network Graphics (PNG) format and analyzed computationally to objectively quantify differences in focal forming units (FFU). […] Cell density was calculated by counting the number of DAPI labeled nuclei, assigned to the blue channel. Images were analyzed using MATLAB to enumerate FFU, and total cell number. […]\nThe MOI was chosen based on findings from viral titration (0.01 to 10 MOI) studies on differentiated and undifferentiated PHK, respectively, used as negative and positive controls. […] For each sample, six random fields were captured at identical acquisition settings and analyzed computationally to objectively quantify differences in focal forming units (FFU). […] An average of 4.8±0.7 FFU/field were counted in CLDN1 knockdown PHK, while only 2.5±0.5 FFU/field were detected in the control cells (P=0.05; n=6; FIG. 15C). Adapted Fluorospot software was used to semi-quantify differences in dimensions of each FFU. […]"}}, "note": "“And” between values parts separate entries of the source, which are not always exact repeats. Identical values can stand only once.", "data": [{"molecule": "CLDN1 siRNA: claudin-1 specific siRNA (Santa Cruz), a pool of 3 separate strands, SEQ ID NO: 10-15 (nucleic acid, chemistry not given here) chain 1: UACAUAGGCAUAGUUCAUGNN chain 2: CAUGAACUAUGCCUAUGUANN chain 3: AACGUAUGCAGUUAAUUCCNN chain 4: GGAAUUAACUGCAUACGUUNN chain 5: UGAAGAUCUAUGUAUGUGGNN chain 6: CCACAUACAUAGAUCUUCANN", "values": [{"measurement": "reduction in claudin-1 transcripts compared to control transfected cells", "setting": "[1]", "result": 50, "unit": "%"}, {"measurement": "claudin-1 transcripts (MEAN±SEM)", "setting": "[1]; n=5/group", "result": "5.42±0.8", "unit": "RVU"}, {"measurement": "claudin-1 transcripts relative to control transfected cells", "setting": "[1]; n=5/group", "result": 0.5, "unit": "fold"}, {"measurement": "claudin-1 transcripts relative to control transfected cells", "setting": "[1]; n=5/group, listed as Cldn1 siRNA", "result": "0.5%±0.06 fold"}, {"measurement": "FFU area", "setting": "[2]", "result": "15649±4367", "unit": "pixels"}, {"measurement": "HSV-1 focal forming units", "setting": "[2]", "result": "4.8±0.7", "unit": "FFU/field"}, {"measurement": "diameter of the major axis of FFU", "setting": "[2]", "result": "207±22 μm and 207±21 μm"}]}]}
